Reference: patent US20200377594A1 (MorphoSys, published 2020)
Residue numbers refer to the chain shown, from its start.

B1: mAb#Nürnberg (antibody, human IgG1, lambda)
heavy: not shown
light: QTVVTQEPSLTVSPGGTVTLTCRSSTGAVTTSNYANWVQQKPGQAPRGLIGGTNKRAPGTPARFSGSLLGGKAALTLSGVQPEDEAEYYCALWYSNLWVFGGGTKLTVLGQPKAAPSVTLFPPSSEELQANKATLVCLISDFYPGAVTVAWKADSSPVKAGVETTTPSKQSNNKYAASSYLSLTPEQWKSHRSYSCQVTHEGSTVEKTVAPTECS
B2: mAb#Köln (antibody, human IgG1, lambda)
heavy: not shown
light: B1 light with Q1E, T2L
B3: mAb#Mainz (antibody, human IgG1, lambda, V domains shown)
VH: QVQLVESGGGLVKPGGSLRLSCAASGFTFNTYAMNWIRQAPGKGLEWVSRIRSKYNNYATYYADSVKDRFTISRDNAKNSLYLQMNSLRAEDTAVYYCVRHGNFGNSYVSWFAYWGQGTLVTVSS
VL: QAVVTQEPSLTVSPGGTVTLTCRSSTGAVTTSNYANWVQQKPGQAPRGLIGGTNKRAPWTPARFSGSLLGGKAALTITGAQAEDEADYYCALWYSNLWVFGGGTKLTVLG
B4: mAb#Freiburg (antibody, human IgG1, lambda, V domains shown)
VH: B3 VH with Q1E, I37V, S49G, N76D, A77S, S80T, R89K, A90T, V99T, R100T
VL: B3 VL with A2T, W59G, I77L, T78L, A82P, D87E
B5: mAb#Gladbach (antibody, human IgG1, lambda, V domains shown)
VH: B3 VH
VL: B3 VL with A2T, N54K, K55F, R56L, W59G, I77L, T78S, A80V, A82P, D87E
B6: SP34 (m/h chimeric) IgG (antibody, V domains shown)
VH: EVQLVESGGGLVQPKGSLKLSCAASGFTFNTYAMNWVRQAPGKGLEWVARIRSKYNNYATYYADSVKDRFTISRDDSQSILYLQMNNLKTEDTAMYYCVRHGNFGNSYVSWFAYWGQGTLVTVSS
VL: QAVVTQESALTTSPGETVTLTCRSSTGAVTTSNYANWVQEKPDHLFTGLIGGTNKRAPGVPARFSGSLIGDKAALTITGAQTEDEAIYFCALWYSNLWVFGGGTKLTVLG
notes: Murine SP34 variable domains tested as mouse/human chimeric IgG; also called SP34 IgG (m/h chimera)
B7: mAb#München (antibody, human IgG1, lambda, V domains shown)
VH: B3 VH with Q1E, I37V, S49G, N76D, A77S, S80T, R89K, A90T, V99T, R100T
VL: B3 VL with A2T, N54K, K55F, R56L, W59G, I77L, T78L, A82P, D87E
notes: also called Munchen
B8: mAb#Bremen (antibody, human IgG1, lambda, V domains shown)
VH: B3 VH with Q1E, I37V, S49G, N76D, A77S, S80T, R89K, A90T, V99T, R100T
VL: B3 VL with A2T, N54K, K55F, R56L, W59G, I77L, T78S, A80V, A82P, D87E

Experiments:
[1] = biological target: T1, recombinant human CD3e (22-49)-Fc2 (K105-K330) (human); assay: ELISA, 5 nM antigen coated, IgG titrated, anti-human F(ab')2-AP detection
T1 construct: also called hCD3e(22-49)_Fc2(K105-K330); hCD3 epsilon 22-49/Fc

[2] = biological target: Human CD3e (22-118) Flag_chLys_avi (human); assay: SPR (Biacore T200), IgG captured on MabSelect SuRe, hCD3e analyte, 1:1 fit; comment: only conc. 37-333 nM used for evaluation
Chain of Human CD3e (22-118) Flag_chLys_avi (human) (chain, as listed by the source limits assumed): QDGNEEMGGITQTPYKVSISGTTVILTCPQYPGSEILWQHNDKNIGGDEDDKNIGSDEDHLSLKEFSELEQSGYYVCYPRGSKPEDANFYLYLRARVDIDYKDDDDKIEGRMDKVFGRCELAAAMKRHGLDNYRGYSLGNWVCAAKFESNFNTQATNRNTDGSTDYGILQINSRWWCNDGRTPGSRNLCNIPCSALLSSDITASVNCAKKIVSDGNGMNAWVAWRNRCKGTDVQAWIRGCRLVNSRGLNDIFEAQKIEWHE

[3] = biological target: T2, recombinant cynomolgus CD3e (22-49)-Fc2(K105-K330) (cynomolgus monkey); assay: ELISA, 1 nM antigen coated, IgG titrated, anti-human F(ab')2-AP detection
T2 construct: also called cyCD3e(22-49)_Fc2(K105-K330); cyCD3 epsilon 22-49/Fc

[4] = biological target: T3, human CD3 expressed on cells (Jurkat cells; human lymphocytes/PBMCs) (human, UniProt P07766 23-207); assay: flow cytometry on CD3 positive Jurkat cells, IgG titrated, anti-human F(ab')2-PE detection
T3 construct: on the cells it stands in the CD3/TCR complex; also called human CD3 epsilon; CD3 positive Jurkat cells
T3 sequence (P07766 23-207): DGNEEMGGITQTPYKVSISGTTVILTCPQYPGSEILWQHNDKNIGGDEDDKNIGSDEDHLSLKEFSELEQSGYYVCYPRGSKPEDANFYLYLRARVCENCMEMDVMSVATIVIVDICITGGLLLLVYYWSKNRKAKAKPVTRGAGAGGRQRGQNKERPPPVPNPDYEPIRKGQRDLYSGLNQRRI

[5] = biological target: Human CD3e (22-118) Flag_chLys_avi (human); assay: SPR (Biacore T200), IgG captured on MabSelect SuRe, hCD3e analyte 4.1-999 nM, 1:1 fit; comment: slightly heterogeneous binding
[6] = biological target: Human CD3e (22-118) Flag_chLys_avi (human); assay: SPR (Biacore T200), IgG captured on MabSelect SuRe, hCD3e analyte, 1:1 fit; comment: weak binding signals, only 333 nM & 999 nM evaluated
[7] = biological target: Human CD3e (22-118) Flag_chLys_avi (human); assay: SPR (Biacore T200), IgG captured on MabSelect SuRe, hCD3e analyte 4.1-999 nM, 1:1 fit; comment: heterogeneous binding
[8] = biological target: T4, cynomolgus CD3 expressed on cynomolgus lymphocytes/PBMCs (cynomolgus monkey, UniProt Q95LI5 22-198); assay: flow cytometry on cynomolgus PBMCs (lymphocyte gate), detection with anti-human F(ab')2-PE
T4 construct: also called cynomolgus CD3 epsilon
T4 sequence (Q95LI5 22-198): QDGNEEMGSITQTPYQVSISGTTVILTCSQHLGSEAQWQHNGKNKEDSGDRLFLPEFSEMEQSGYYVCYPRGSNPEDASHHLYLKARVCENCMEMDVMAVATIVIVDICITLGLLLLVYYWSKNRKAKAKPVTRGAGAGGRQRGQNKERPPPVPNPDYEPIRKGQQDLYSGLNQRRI

[9] = biological target: Human CD3e (22-118) Flag_chLys_avi (human); assay: SPR (Biacore T200), IgG captured on MabSelect SuRe, hCD3e analyte 4.1-999 nM, 1:1 fit

Binder	EC50 [1]	EC50 [3]	EC50 [4]	Kd [5]	koff [5]	kon [5]	EC50 (read off the curve) [8]	other results
B1	0.34 nM	0.21 nM	1 nM	–	–	–	–	Kd [2]: 48 nM; koff [2]: 0.00387 s⁻¹; kon [2]: 80000 M⁻¹ s⁻¹
B2	0.31 nM	0.2 nM	1.8 nM	51 nM	0.00386 s⁻¹	76200 M⁻¹ s⁻¹	–	–
B3	1.21 nM	1.53 nM	9.4 nM	–	–	–	–	Kd [6]: 600 nM; koff [6]: 0.00847 s⁻¹; kon [6]: 14200 M⁻¹ s⁻¹
B4	0.91 nM	1.26 nM	10.7 nM	–	–	–	~10 nM	Kd [7]: 130 nM; koff [7]: 0.00467 s⁻¹; kon [7]: 35200 M⁻¹ s⁻¹
B5	0.38 nM	0.21 nM	1.4 nM	54 nM	0.00385 s⁻¹	71800 M⁻¹ s⁻¹	~6 nM	–
B6	0.39 nM	0.15 nM	1.4 nM	–	–	–	~3 nM	Kd [9]: 1.7 nM; koff [9]: 0.000835 s⁻¹; kon [9]: 487000 M⁻¹ s⁻¹
B7	0.6 nM	1.43 nM	6.6 nM	78 nM	0.00658 s⁻¹	84000 M⁻¹ s⁻¹	~20 nM	–
B8	1.1 nM	0.8 nM	6.3 nM	–	–	–	~20 nM	Kd [7]: 74 nM; koff [7]: 0.00479 s⁻¹; kon [7]: 65000 M⁻¹ s⁻¹
